Assay results as given in patent US9766250B2, “Method for detecting protein-protein interaction” (MEDICAL & BIOLOGICAL LABORATORIES CO., LTD., priority 2011, dated 2017).

B1: DsRed2: fluorescent protein capable of homotetramerization, SEQ ID NO: 153 (protein)
chain: MASSENVITEFMRFKVRMEGTVNGHEFEIEGEGEGRPYEGHNTVKLKVTKGGPLPFAWDILSPQFQYGSKVYVKHPADIPDYKKLSFPEGFKWERVMNFEDGGVATVTQDSSLQDGCFIYKVKFIGVNFPSDGPVMQKKTMGWEASTERLYPRDGVLKGETHKALKLKDGGHYLVEFKSIYMAKKPVQLPGYYYVDAKLDITSHNEDYTIVEQYERTEGRHHLFL
modifications: Synthetic sequence DsRed2
B2: monomeric Kikume Green-Red1 (protein)
chain: MVSVITSEMKIELRMEGSVNGHKFVITGKGSGRPYEGTQTVDLTVIEGGPLPFAFDILTTAFHYGNRVFVEYPEEIVDYFKQSFPEGYSWERSMSYEDGGICLATNNITMKKDGSNTFVNEIRFDGTNFPANGPVMQRKTVKWEPSTEKMYVRDGVLKGDVEMALLLEGGGHYRCDFRTTYKAKKVVQLPDYHYVDHQMEITSHDKDYNKVKAYEHAKAYSGTYRGAKYEFEA
modifications: Synthetic sequence mKikGR1

Tests used:
[1] = target: T1, mTOR(FRB) and FKBP12 interaction (Homo sapiens, UniProt P42345+P62942); assay: Degree of fluorescent focus (assembly) formation after rapamycin, fluorescent proteins fused to mTOR(FRB) (Example 8, Table 1); format: cell-based; conditions: fluorescent protein fused to mTOR(FRB); for degree of fluorescent focus formation, DGKd (SAM): with FKBP12-DGKd(SAM); for degree of fluorescent focus formation, TEL (SAM): with FKBP12-TEL(SAM); for degree of fluorescent focus formation, Tankyrase (SAM): with FKBP12-Tankyrase(SAM), some combinations in 293T cells; for degree of fluorescent focus formation, P62 (PB1): with p62(PB1)-FKBP12
T1 construct: region having the 2025th to 2114th amino acids of the mTOR protein; expressed in transfected cells; host or cells: HeLaS3; 293T for some combinations with FKBP12-Tankyrase(SAM)
Description: Note that plasmid DNAs encoding fusion proteins composed of mTOR(FRB) and the corresponding fluorescent proteins were prepared as appropriate by the same method as that described in Example 2. Moreover, regarding the combinations of FKBP12-Tankyrase(SAM) with mKO2, mKeima, mMiCy1, mKO1, MiCy1, and TGuv, the test was conducted by introducing the genes into 293T cells. Specifically, the 293T cells were cultured in DMEM High glucose (manufactured by SIGMA ALDRICH CO.) containing 10% FBS (manufactured by Equitech-Bio Inc.). Moreover, the 293T cells were seeded onto an 8-well chamber (manufactured by Nunc A/S) 6 hours before the plasmid DNAs were introduced. Further, at the time of the transfection, 200 ng of the plasmid DNA encoding FKBP12-Tankyrase(SAM) and 200 ng of one of the plasmid DNAs encoding fusion proteins composed of the fluorescent proteins and mTOR(FRB) were diluted with 30 μl of OptiMEM (manufactured by Life Technologies Corporation), and 1.2 μl of TurboFect Transfection Reagent (manufactured by Thermo Fisher Scientific Inc.) was added thereto and stirred. Then, the resultant was further mixed with 300 μl of the culture solution, subsequently added to the 293T cells, and observed 48 hours later.

[2] = target: T1, mTOR(FRB) and FKBP12 interaction; assay: Degree of fluorescent focus (assembly) formation after rapamycin with TFG(PB1) (Example 9, Table 2); format: cell-based; conditions: fluorescent protein fused to mTOR(FRB), KO1 and dAG (AB) in 293T cells

T1 sequence (P42345 2025-2114): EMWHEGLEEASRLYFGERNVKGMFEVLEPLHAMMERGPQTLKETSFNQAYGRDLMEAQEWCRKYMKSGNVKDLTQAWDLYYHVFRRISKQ
T1 sequence (P62942 whole entry, the tested form may be a part): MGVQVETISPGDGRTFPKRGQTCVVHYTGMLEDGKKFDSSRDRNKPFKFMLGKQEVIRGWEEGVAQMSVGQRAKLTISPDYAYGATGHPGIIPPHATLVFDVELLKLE

| Molecule | degree of fluorescent focus formation, DGKd (SAM) [1] | degree of fluorescent focus formation, TEL (SAM) [1] | degree of fluorescent focus formation, Tankyrase (SAM) [1] | degree of fluorescent focus formation, P62 (PB1) [1] | degree of fluorescent focus formation, TFG (PB1) [2] |
| --- | --- | --- | --- | --- | --- |
| B1 | +++ (fluorescent foci were observed in 50% or more of the HeLaS3 cells) | +++ (fluorescent foci were observed in 50% or more of the HeLaS3 cells) | +++ (fluorescent foci were observed in 50% or more of the HeLaS3 cells) | +++ (fluorescent foci were observed in 50% or more of the HeLaS3 cells) | ++ (fluorescent foci were observed in 50% or less of the HeLaS3 cells) |
| B2 | +++ (fluorescent foci were observed in 50% or more of the HeLaS3 cells) | +++ (fluorescent foci were observed in 50% or more of the HeLaS3 cells) | +++ (fluorescent foci were observed in 50% or more of the HeLaS3 cells) | +++ (fluorescent foci were observed in 50% or more of the HeLaS3 cells) | ++ (fluorescent foci were observed in 50% or less of the HeLaS3 cells) |
